Results published in article PMC10397247.
One block for each binder: values may come before it.

Columns and labels:
4H2736-AA = molecular target: T1, 4H2736-AA; test: two-hybrid library CCmax;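 further: natural log of median RNA to DNA barcode read ratio; higher means stronger binding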
T1 chain: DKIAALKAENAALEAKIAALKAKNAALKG

4H2888-AA = molecular target: T2, 4H2888-AA; test: two-hybrid library CCmax; settings: mean of both orientations;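 further: natural log of median RNA to DNA barcode read ratio; higher means stronger binding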
T2 chain: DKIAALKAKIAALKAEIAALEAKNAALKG

4H3049-AA = molecular target: T3, 4H3049-AA; test: two-hybrid library CCmax; settings: mean of both orientations;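 further: natural log of median RNA to DNA barcode read ratio; higher means stronger binding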
T3 chain: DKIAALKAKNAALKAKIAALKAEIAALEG

4H337-AA = molecular target: T4, 4H337-AA; test: two-hybrid library CCmax; settings: mean of both orientations;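 further: natural log of median RNA to DNA barcode read ratio; higher means stronger binding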
T4 chain: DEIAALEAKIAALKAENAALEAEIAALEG

4H3587-AA = molecular target: T5, 4H3587-AA; test: two-hybrid library CCmax; settings: mean of both orientations
T5 chain: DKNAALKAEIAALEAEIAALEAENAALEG

4H3590-AA = molecular target: T6, 4H3590-AA; test: two-hybrid library CCmax; settings: mean of both orientations
T6 chain: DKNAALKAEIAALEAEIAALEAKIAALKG

4H3625-AA = molecular target: T7, 4H3625-AA; test: two-hybrid library CCmax; settings: mean of both orientations
T7 chain: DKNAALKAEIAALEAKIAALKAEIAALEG

4H384-AA = molecular target: T8, 4H384-AA; test: two-hybrid library CCmax; settings: mean of both orientations
T8 chain: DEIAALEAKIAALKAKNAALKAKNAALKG

4H3905-AA = molecular target: T9, 4H3905-AA; test: two-hybrid library CCmax; settings: mean of both orientations
T9 chain: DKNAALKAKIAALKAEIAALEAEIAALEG

4H4038-AA = molecular target: T10, 4H4038-AA; test: two-hybrid library CCmax; settings: mean of both orientations
T10 chain: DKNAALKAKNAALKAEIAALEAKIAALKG

4H43-AA = molecular target: T11, 4H43-AA; test: two-hybrid library CCmax
T11 chain: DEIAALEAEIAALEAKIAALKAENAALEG

4H451-AA = molecular target: T12, 4H451-AA; test: two-hybrid library CCmax; settings: mean of both orientations
T12 chain: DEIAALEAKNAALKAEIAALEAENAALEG

4H510-AA = molecular target: T13, 4H510-AA; test: two-hybrid library CCmax; settings: mean of both orientations
T13 chain: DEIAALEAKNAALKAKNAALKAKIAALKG

4H_APH = molecular target: T14, 4H_APH; test: two-hybrid library CCmax; settings: mean of both orientations
T14 chain: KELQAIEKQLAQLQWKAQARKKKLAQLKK

4H_BCR = molecular target: T15, 4H_BCR; test: two-hybrid library CCmax; settings: mean of both orientations
T15 chain: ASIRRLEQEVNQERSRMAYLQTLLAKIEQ

4H_GCN4 = test: two-hybrid library CCmax; settings: mean of both orientations
GCN2_T = test: two-hybrid library CCmax
O11-AA = molecular target: T16, O11-AA; test: two-hybrid library CCmax; settings: mean of both orientations
T16 chain: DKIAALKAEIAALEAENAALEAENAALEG

O13-AA = molecular target: T17, O13-AA; test: two-hybrid library CCmax; settings: mean of both orientations
T17 chain: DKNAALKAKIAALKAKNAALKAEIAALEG

O14-AA = molecular target: T18, O14-AA; test: two-hybrid library CCmax; settings: mean of both orientations
T18 chain: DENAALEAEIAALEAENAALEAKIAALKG

4H349-bA = molecular target: T19, 4H349-bA; test: two-hybrid library CCNG1
T19 chain: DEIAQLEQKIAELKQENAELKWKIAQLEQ

4H56-bA = molecular target: T20, 4H56-bA; test: two-hybrid library CCNG1
T20 chain: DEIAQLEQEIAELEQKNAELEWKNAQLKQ

4H730-bA = molecular target: T21, 4H730-bA; test: two-hybrid library CCNG1
T21 chain: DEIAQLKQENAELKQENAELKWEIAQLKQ

4H796-bA = molecular target: T22, 4H796-bA; test: two-hybrid library CCNG1
T22 chain: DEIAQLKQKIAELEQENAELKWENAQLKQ

4H932-bA = molecular target: T23, 4H932-bA; test: two-hybrid library CCNG1
T23 chain: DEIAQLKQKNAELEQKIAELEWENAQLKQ

4H949-bA = molecular target: T24, 4H949-bA; test: two-hybrid library CCNG1
T24 chain: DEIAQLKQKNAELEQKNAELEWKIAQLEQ

O15-bP = molecular target: T25, O15-bP; test: two-hybrid library CCNG1
T25 chain: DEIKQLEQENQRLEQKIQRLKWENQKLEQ

P6A-bS = molecular target: T26, P6A-bS; test: two-hybrid library CCNG1
T26 chain: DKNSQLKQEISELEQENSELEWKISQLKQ

P7A-bS = molecular target: T27, P7A-bS; test: two-hybrid library CCNG1
T27 chain: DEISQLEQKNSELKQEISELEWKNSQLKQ

P8A-bS = molecular target: T28, P8A-bS; test: two-hybrid library CCNG1
T28 chain: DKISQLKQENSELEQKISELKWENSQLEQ

P9A-bS = molecular target: T29, P9A-bS; test: two-hybrid library CCNG1
T29 chain: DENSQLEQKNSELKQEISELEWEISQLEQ

4H_GCN4, sequence (chain, as listed by the source): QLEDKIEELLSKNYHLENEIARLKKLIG

interaction score (4H2736-AA): -1.62
interaction score (4H2888-AA): -0.685
interaction score (4H3049-AA): 0.275
interaction score (4H337-AA): -0.315
interaction score (4H3587-AA): -1.26
interaction score (4H3590-AA): -0.712
interaction score (4H3625-AA): 0.218
interaction score (4H384-AA): -1.67
interaction score (4H3905-AA): -1.18
interaction score (4H4038-AA): -0.154
interaction score (4H43-AA): -0.422
interaction score (4H451-AA): 0.882
interaction score (4H510-AA): -1.15
interaction score (4H_APH): -1.33
interaction score (4H_BCR): -1.69
interaction score (4H_GCN4): -2.46
interaction score (GCN2_T): -0.66
interaction score (O11-AA): -0.615
interaction score (O13-AA): 0.351
interaction score (O14-AA): -0.38
Binder: DKIAALKAENAALEAKIAALKAKNAALKG [4H2736-AA]

interaction score (4H349-bA): 0.649
interaction score (4H56-bA): -0.982
interaction score (4H730-bA): -0.854
interaction score (4H796-bA): -0.458
interaction score (4H932-bA): -0.919
interaction score (4H949-bA): -1.01
interaction score (O15-bP): 0.584
Binder: DEIAQLEQKIAELKQENAELKWKIAQLEQ [4H349-bA]

interaction score (P6A-bS): -2.31
interaction score (P7A-bS): 1.24
interaction score (P8A-bS): 0.0461
interaction score (P9A-bS): -0.77
Binder: DKNSQLKQEISELEQENSELEWKISQLKQ [P6A-bS]
